Assay results as given in the supplement of paper PMC9112550, “Optimization of the antimicrobial peptide Bac7 by deep mutational scanning” (BMC Biology, 2022).

Test system: Escherichia coli TOP10
Assay: shrunken log2 fold change of peptide-encoding DNA abundance (4.5 h post-induction vs induction); higher = less antimicrobial activity (less host growth inhibition)
Details: time post-induction: 4.5 h; library: site-saturation at positions 5, 18, 19, 20
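Also: peptides expressed intracellularly from a pBAD plasmid library in pooled LB shake-flask culture, induced with 0.3% L-arabinose, DNA abundance read by NGS, three biological replicates, DESeq2 with apeglm shrinkage.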

Sequence	shrunken log2 fold change
RRIRARPPRLPRPRPRPIYIPRP	2.43
RRIRQRPPRLPRPRPRPYCPPRP	-0.422
RRIRGRPPRLPRPRPRPTKAPRP	1.03
RRIRGRPPRLPRPRPRPDNQPRP	0.168
RRIRRRPPRLPRPRPRPEQNPRP	0.849
RRIRRRPPRLPRPRPRPEAHPRP	0.171
RRIRYRPPRLPRPRPRPVHTPRP	-0.562
RRIRQRPPRLPRPRPRPGVFPRP	0.0582
RRIRQRPPRLPRPRPRPLPVPRP	0.21
RRIRRRPPRLPRPRPRPYHYPRP	-0.717
RRIRRRPPRLPRPRPRPCDFPRP	-0.128
RRIRFRPPRLPRPRPRPTNGPRP	-0.137
RRIRDRPPRLPRPRPRPSQSPRP	-0.119
RRIRTRPPRLPRPRPRPLSNPRP	0.012
RRIRGRPPRLPRPRPRPRRVPRP	0.485
RRIRLRPPRLPRPRPRPAWCPRP	0.094
RRIRTRPPRLPRPRPRPMNDPRP	-0.0997
RRIRCRPPRLPRPRPRPYSLPRP	-0.258
RRIRSRPPRLPRPRPRPQHEPRP	-0.296
RRIRQRPPRLPRPRPRPLSHPRP	-0.168
RRIRFRPPRLPRPRPRPYLGPRP	-0.11
RRIRYRPPRLPRPRPRPVNMPRP	-0.47
RRIRSRPPRLPRPRPRPMKYPRP	-0.278
RRIRRRPPRLPRPRPRPRNMPRP	0.112
RRIRSRPPRLPRPRPRPHRIPRP	-0.706

Sequence	shrunken log2 fold change
RRIRSRPPRLPRPRPRPWNIPRP	-0.0599
RRIRIRPPRLPRPRPRPAINPRP	-0.606
RRIRRRPPRLPRPRPRPPTHPRP	0.622
RRIRGRPPRLPRPRPRPHVAPRP	0.724
RRIRSRPPRLPRPRPRPMNAPRP	0.0215
RRIRFRPPRLPRPRPRPSPRPRP	0.426
RRIRNRPPRLPRPRPRPHPDPRP	-0.15
RRIRGRPPRLPRPRPRPPAQPRP	1.4
RRIRERPPRLPRPRPRPDPRPRP	0.768
RRIRERPPRLPRPRPRPYANPRP	0.0234
RRIRNRPPRLPRPRPRPVEIPRP	-0.0323
RRIRERPPRLPRPRPRPNFLPRP	-0.114
RRIRFRPPRLPRPRPRPYWWPRP	-0.198
RRIRFRPPRLPRPRPRPLPDPRP	0.138
RRIRPRPPRLPRPRPRPMFLPRP	-0.269
RRIRDRPPRLPRPRPRPKTEPRP	-0.0167
RRIRERPPRLPRPRPRPEVNPRP	-0.0365
RRIRKRPPRLPRPRPRPHDLPRP	0.00698
RRIRFRPPRLPRPRPRPTVNPRP	2.04
RRIRVRPPRLPRPRPRPNYFPRP	-0.303
RRIRRRPPRLPRPRPRPNCQPRP	0.0764
RRIRKRPPRLPRPRPRPHPYPRP	-0.0228
RRIRHRPPRLPRPRPRPCDRPRP	-0.239
RRIRLRPPRLPRPRPRPCRRPRP	-0.0846
RRIRNRPPRLPRPRPRPKFGPRP	0.0252

Sequence	shrunken log2 fold change
RRIRSRPPRLPRPRPRPGCCPRP	0.396
RRIRERPPRLPRPRPRPNHSPRP	-0.594
RRIRWRPPRLPRPRPRPFSWPRP	0.0632
RRIRLRPPRLPRPRPRPSPIPRP	-0.0508
RRIRPRPPRLPRPRPRPEGPPRP	-0.147
RRIRRRPPRLPRPRPRPDYEPRP	-0.115
RRIRQRPPRLPRPRPRPLLLPRP	-0.363
RRIRTRPPRLPRPRPRPSVWPRP	0.172
RRIRWRPPRLPRPRPRPCQDPRP	-0.0575
RRIRQRPPRLPRPRPRPCEKPRP	-0.00192
RRIRVRPPRLPRPRPRPEAAPRP	0.635
RRIRVRPPRLPRPRPRPAKFPRP	0.42
RRIRDRPPRLPRPRPRPRAHPRP	0.38
RRIRRRPPRLPRPRPRPVFQPRP	0.00379
RRIRKRPPRLPRPRPRPDTTPRP	0.0419
RRIRPRPPRLPRPRPRPHDRPRP	-0.0974
RRIRLRPPRLPRPRPRPGFVPRP	0.487
RRIRFRPPRLPRPRPRPQGFPRP	-0.313
RRIRIRPPRLPRPRPRPEWAPRP	0.0716
RRIRRRPPRLPRPRPRPFLRPRP	0.382
RRIRQRPPRLPRPRPRPPVQPRP	0.301
RRIRSRPPRLPRPRPRPNPMPRP	-0.111
RRIRDRPPRLPRPRPRPQDVPRP	-0.254
RRIRARPPRLPRPRPRPQATPRP	0.389
RRIRFRPPRLPRPRPRPFTLPRP	0.0331

Sequence	shrunken log2 fold change
RRIRERPPRLPRPRPRPALGPRP	0.37
RRIRERPPRLPRPRPRPAPLPRP	0.324
RRIRERPPRLPRPRPRPDDWPRP	-0.0125
RRIRIRPPRLPRPRPRPISDPRP	-0.0354
RRIRDRPPRLPRPRPRPIKCPRP	-0.0161
RRIRVRPPRLPRPRPRPWMTPRP	-0.0714
RRIRARPPRLPRPRPRPEADPRP	1.53
RRIRKRPPRLPRPRPRPDCGPRP	0.016
RRIRTRPPRLPRPRPRPKVTPRP	-0.026
RRIRNRPPRLPRPRPRPPKLPRP	0.0789
RRIRVRPPRLPRPRPRPHLPPRP	-0.0222
RRIRQRPPRLPRPRPRPPYVPRP	0.191
RRIRLRPPRLPRPRPRPSSLPRP	-0.39
RRIRSRPPRLPRPRPRPQTAPRP	0.0464
RRIRARPPRLPRPRPRPKNYPRP	-0.279
RRIRWRPPRLPRPRPRPHVIPRP	-0.13
RRIRKRPPRLPRPRPRPIHLPRP	-0.0911
RRIRTRPPRLPRPRPRPPLNPRP	-0.183
RRIRHRPPRLPRPRPRPYTMPRP	-0.393
RRIRQRPPRLPRPRPRPMSTPRP	-0.0212
RRIRIRPPRLPRPRPRPMGYPRP	-0.148
RRIRKRPPRLPRPRPRPFYLPRP	-0.154
RRIRERPPRLPRPRPRPCMKPRP	-0.506
RRIRCRPPRLPRPRPRPRVNPRP	0.0551
RRIRVRPPRLPRPRPRPNYMPRP	-0.923

Sequence	shrunken log2 fold change
RRIRNRPPRLPRPRPRPSHWPRP	-0.17
RRIRVRPPRLPRPRPRPKGDPRP	0.275
RRIRRRPPRLPRPRPRPLCEPRP	0.443
RRIRQRPPRLPRPRPRPHKIPRP	0.00423
RRIRFRPPRLPRPRPRPLPSPRP	0.0283
RRIRKRPPRLPRPRPRPLTTPRP	0.539
RRIRPRPPRLPRPRPRPESVPRP	0.0986
RRIRFRPPRLPRPRPRPSMWPRP	-0.579
RRIRVRPPRLPRPRPRPSCLPRP	-0.618
RRIRTRPPRLPRPRPRPMTAPRP	0.154
RRIRMRPPRLPRPRPRPPCQPRP	0.505
RRIRKRPPRLPRPRPRPSCHPRP	-0.132
RRIRARPPRLPRPRPRPITMPRP	-0.231
RRIRIRPPRLPRPRPRPHPYPRP	-0.0313
RRIRSRPPRLPRPRPRPLKVPRP	-0.0229
RRIRRRPPRLPRPRPRPPQFPRP	0.864
RRIRARPPRLPRPRPRPNWMPRP	0.0981
RRIRQRPPRLPRPRPRPNNEPRP	-0.885
RRIRCRPPRLPRPRPRPDDMPRP	-0.477
RRIRIRPPRLPRPRPRPDVHPRP	-0.00757
RRIRDRPPRLPRPRPRPVLGPRP	0.162
RRIRNRPPRLPRPRPRPENKPRP	-0.0669
RRIRRRPPRLPRPRPRPMWFPRP	-0.0232
RRIRYRPPRLPRPRPRPQGCPRP	-0.557
RRIRRRPPRLPRPRPRPLQNPRP	0.045
